Experimental data: patent US20190330365A1 (University of California, published 2019)
Values joined by “and” are separate entries in the source; they are usually repeats but may differ in a detail not shown here. Equal entries are not always repeated. One block for each binder: values may come before it.

Experiments:
[1] = molecular target: T1, Activated leukocyte cell adhesion molecule (ALCAM), on cells (human, UniProt Q13740 28-583); assay: apparent KD on cells
T1 construct: whole, on cells; also called guide antigen
T1 sequence (looked up): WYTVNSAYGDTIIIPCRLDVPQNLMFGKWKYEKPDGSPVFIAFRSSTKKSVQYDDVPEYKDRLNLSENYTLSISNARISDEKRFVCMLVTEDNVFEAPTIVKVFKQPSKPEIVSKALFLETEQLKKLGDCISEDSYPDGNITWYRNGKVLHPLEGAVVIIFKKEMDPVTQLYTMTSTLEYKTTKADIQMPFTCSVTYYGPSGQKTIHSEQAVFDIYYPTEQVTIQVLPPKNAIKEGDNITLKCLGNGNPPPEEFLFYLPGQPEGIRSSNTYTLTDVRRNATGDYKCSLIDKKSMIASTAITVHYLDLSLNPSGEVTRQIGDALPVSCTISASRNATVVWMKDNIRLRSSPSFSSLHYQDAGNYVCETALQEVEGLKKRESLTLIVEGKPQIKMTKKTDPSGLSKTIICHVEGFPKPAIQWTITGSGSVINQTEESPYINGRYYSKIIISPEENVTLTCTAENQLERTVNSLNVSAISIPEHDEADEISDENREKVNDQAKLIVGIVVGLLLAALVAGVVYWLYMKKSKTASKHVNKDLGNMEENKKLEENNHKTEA

[2] = molecular target: T2, Low-density lipoprotein receptor-related protein 6 (LRP6), human, on cells (human, UniProt O75581 20-1613); assay: cell-based or functional assay
[3] = molecular target: T2, Low-density lipoprotein …; assay: apparent KD, flow cytometry on HEK293 cells that express LRP6, curve fit
Protocol: FIGS. 7A-7E depict the results illustrating characterization of anti-LRP6 scFvs and derived bsAbs. FIG. 7A depicts the results of anti-LRP6 scFv-phage screening by flow cytometry analysis. Individual scFv-phage clones were separately amplified from the 3rd round panning output against LRP6E1E2 or LRP6E3E4 domain. scFv-phage particles were incubated with parental HEK293 or LRP6-transfected HEK293 cells and detected by biotinylated anti-M13 IgG and PE-labeled streptavidin. Relative MFI values (folds of phage binding to LRP6+ cells against LRP6− cells) were plotted on a graph. FIGS. 7B and 7C depict the results of flow cytometry analysis for binding kinetics of E34N19 (B) or E12N21 (C) scFv-Fc to HEK293 cells. The apparent KD was calculated based on the non-linear curve fittings by Prism 5 program. FIG. 7D depicts the results of cell-binding analysis of mono- or bi-specific anti-LRP6 antibodies. Binding of E34N19 scFv-Fc, E34N19 IgG, H/6 TaFv-Fc, 6/H bsIgG, or H3 IgG (each 100 nM) to HEK293 cells originally expressing ALCAM was analyzed by flow cytometry. […]
The apparent antibody binding affinity was measured on target cells by FACS as described (An, Zhu). […] After 1 hr incubation, cells were washed and analyzed by FACS as described above. The apparent KD was determined by a curve fit method using MFI values as described (Benedict, An, Zhu).

[4] = molecular target: T3, Ephrin type-A receptor 2 (EphA2), human, on cells (human, UniProt P29317 24-976); assay: FACS
T3 construct: whole, on cells; also called guide antigen

[5] = molecular target: T4, EphA2, murine, on CT26 cells (mouse, UniProt Q03145 26-977); assay: FACS on murine colon cancer cell line CT26 that expresses EphA2
T4 construct: whole, on cells; also called murine antigen

[6] = molecular target: Low-density lipoprotein receptor-related protein 6 (LRP6), human, on cells (human) (UniProt O75581); assay: cell-based or functional assay
Sequence of Low-density lipoprotein receptor-related protein 6 (LRP6), human, on cells (human) (O75581 20-1613): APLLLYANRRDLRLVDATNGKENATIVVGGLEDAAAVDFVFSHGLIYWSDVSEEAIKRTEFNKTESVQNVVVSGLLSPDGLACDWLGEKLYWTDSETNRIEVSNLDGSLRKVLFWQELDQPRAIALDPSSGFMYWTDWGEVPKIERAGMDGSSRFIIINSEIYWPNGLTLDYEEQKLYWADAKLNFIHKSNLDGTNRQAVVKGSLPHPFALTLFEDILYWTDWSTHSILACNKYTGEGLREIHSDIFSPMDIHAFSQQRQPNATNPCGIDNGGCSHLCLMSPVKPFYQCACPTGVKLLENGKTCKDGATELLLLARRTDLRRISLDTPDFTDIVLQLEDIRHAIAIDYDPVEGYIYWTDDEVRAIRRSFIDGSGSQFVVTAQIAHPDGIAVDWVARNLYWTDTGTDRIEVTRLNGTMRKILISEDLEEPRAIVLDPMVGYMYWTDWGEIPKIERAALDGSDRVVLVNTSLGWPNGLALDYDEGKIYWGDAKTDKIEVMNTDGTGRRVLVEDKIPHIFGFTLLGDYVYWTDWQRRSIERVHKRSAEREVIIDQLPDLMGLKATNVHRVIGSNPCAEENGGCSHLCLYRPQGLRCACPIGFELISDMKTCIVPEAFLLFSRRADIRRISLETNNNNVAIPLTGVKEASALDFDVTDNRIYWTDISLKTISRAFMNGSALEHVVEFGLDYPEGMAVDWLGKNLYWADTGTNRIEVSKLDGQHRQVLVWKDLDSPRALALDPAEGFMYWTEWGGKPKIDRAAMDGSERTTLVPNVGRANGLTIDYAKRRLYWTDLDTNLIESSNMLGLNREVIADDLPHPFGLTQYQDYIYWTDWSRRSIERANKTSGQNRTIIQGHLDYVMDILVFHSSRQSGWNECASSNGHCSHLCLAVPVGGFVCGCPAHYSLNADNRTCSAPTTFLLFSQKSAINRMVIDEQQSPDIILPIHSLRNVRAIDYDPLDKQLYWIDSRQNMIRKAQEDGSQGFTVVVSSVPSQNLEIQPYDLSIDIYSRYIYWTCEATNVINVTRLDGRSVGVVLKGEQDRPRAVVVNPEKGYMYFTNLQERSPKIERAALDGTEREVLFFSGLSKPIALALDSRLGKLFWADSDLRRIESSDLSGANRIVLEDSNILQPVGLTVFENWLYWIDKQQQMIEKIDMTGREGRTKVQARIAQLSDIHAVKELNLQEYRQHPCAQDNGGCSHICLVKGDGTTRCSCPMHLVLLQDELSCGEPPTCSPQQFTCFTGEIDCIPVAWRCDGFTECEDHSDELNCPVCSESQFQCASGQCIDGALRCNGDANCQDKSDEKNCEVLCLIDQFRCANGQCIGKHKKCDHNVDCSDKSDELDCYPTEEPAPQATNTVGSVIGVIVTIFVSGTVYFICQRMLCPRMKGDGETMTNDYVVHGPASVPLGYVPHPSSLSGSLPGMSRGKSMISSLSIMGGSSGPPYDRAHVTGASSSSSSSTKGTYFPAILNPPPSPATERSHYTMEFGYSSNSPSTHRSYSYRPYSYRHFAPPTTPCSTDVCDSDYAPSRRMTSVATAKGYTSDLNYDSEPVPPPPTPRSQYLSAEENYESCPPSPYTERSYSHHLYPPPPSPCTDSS

T2 sequence (O75581 20-1613): as above
T4 sequence (Q03145 26-977): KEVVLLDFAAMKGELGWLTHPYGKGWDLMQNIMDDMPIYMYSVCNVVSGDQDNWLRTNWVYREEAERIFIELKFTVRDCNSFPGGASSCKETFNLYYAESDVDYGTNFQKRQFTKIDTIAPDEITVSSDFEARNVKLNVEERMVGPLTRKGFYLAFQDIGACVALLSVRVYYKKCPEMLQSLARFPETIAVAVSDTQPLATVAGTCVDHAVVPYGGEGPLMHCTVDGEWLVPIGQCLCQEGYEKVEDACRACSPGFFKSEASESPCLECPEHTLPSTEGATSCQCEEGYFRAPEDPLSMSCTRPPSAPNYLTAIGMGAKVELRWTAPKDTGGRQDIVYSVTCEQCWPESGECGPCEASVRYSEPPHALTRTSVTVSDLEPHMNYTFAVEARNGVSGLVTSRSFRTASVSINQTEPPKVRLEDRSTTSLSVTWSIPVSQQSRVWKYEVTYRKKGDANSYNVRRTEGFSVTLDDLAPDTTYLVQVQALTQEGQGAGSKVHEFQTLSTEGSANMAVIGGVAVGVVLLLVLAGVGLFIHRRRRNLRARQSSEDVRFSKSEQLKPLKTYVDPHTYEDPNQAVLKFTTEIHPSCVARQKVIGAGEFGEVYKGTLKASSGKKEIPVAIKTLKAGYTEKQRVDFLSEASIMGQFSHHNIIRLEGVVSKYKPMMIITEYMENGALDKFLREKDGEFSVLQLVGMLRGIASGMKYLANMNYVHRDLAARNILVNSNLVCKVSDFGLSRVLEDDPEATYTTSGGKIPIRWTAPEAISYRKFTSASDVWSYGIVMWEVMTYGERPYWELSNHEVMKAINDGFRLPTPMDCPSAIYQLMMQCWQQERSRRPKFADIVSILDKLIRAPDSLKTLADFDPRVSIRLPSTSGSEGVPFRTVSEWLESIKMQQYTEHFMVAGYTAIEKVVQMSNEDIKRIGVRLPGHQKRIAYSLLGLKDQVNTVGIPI
T3 sequence (P29317 24-976): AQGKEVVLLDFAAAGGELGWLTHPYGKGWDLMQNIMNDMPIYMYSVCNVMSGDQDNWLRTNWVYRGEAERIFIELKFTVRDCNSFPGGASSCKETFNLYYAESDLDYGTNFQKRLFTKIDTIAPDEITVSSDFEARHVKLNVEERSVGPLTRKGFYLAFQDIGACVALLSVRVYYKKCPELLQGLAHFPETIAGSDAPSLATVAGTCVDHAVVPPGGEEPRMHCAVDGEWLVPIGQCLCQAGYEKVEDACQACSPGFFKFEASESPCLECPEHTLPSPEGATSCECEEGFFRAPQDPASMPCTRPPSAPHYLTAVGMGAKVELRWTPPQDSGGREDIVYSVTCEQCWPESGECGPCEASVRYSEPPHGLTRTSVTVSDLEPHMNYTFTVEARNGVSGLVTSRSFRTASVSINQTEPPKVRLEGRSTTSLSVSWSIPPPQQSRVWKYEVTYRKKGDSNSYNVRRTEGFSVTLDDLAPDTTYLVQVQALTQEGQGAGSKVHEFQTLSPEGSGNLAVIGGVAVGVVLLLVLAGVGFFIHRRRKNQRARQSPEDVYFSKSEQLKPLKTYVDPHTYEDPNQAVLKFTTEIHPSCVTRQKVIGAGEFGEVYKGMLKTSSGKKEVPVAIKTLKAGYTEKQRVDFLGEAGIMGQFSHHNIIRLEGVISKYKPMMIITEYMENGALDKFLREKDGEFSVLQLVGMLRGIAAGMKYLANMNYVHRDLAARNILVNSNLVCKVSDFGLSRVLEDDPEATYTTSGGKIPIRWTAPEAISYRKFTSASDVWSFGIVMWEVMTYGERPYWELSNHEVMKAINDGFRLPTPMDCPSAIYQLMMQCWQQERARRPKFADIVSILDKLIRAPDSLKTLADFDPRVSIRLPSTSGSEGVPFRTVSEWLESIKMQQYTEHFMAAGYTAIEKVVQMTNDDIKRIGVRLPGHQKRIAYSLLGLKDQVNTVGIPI

B2: H3 IgG (antibody, V domains shown)
VH: QVQLVESGGGLVQPGGSLRLSCAASGFTFSSYAMSWVRQAPGKGLEWVSAISGSGGSTYYADSVKGRFTISRDNSKDTLYLQMNSLRAEDTAVYYCASRSLLDYWGQGTLVTVSS
VL: NFMLTQNPAVSVALGQTVRITCQGDSLRSYYASWYQQKPGQAPLLVIYGKNNRPSGIPDRFSGSSSGNTASLTITGAQAEDEADYYCNSRDSSGNPVFGGGTKVTVL
notes: IgG; also called anti-ALCAM H3 IgG; guide antibody H3
- Kd [1]: 0.00734 nM

B5: E12N21 scFv-Fc (Fc fusion)
scFv: QVQLQESGGGLVKPGGSLRLSCAASGFTFSSYWMSWVRQAPGKGLEWVANIKQDGSEKYYVDSVKGRFTISRDNSKNTLYLQMNSLRAEDTAIYYCAKTMTASAWLGGGRDSWGQGTLVTVSSGGGGSGGGGSGGGGSQSVLTQDPAVSVALGQTVRITCQGDSLRTLSTNWYQQKSGQAPVLVIYGNSNRPSGVPDRFSGSSSGNTASLTITGAQAEDEADYYCQSYDNSVRGSRVFGTGTKLTVL
notes: scFv gene cloned into unmodified pFUSE-hIgG1-Fc2; also called monoclonal E12N21; not shown: human IgG1 Fc of vector pFUSE-hIgG1-Fc2 (InvivoGen)
- IC50, STF reporter, Wnt1-transfected HEK293 [2]: ~3.5 nM
- IC50, Wnt1-induced STF reporter activity, HEK293 [2]: 2.63 nM
- Kd [3]: ~5.2 nM

B7: E34N19 IgG (antibody, V domains shown)
VH: QVNLRESGGGLVQPGGSLRLSCAASGFTFSSYAMSWVRQAPGKGLEWVSAISGSGGSTYYADSVKGRFTISRDNSKNTLYLQMNSLRAEDTAVYYCAKVRGHGGNSGWVDYWGQGTLVTVSS
VL: QSVLTQDPAVSVALGQTVKITCQGDSLRTYYTSWYQQRPGQAPILVLYANTHRPSSIPDRFSGSSSGTTASLTITGAQAEDEADYYCNSRDSSGNYLFGGGTKLTVL
- IC50, STF reporter, Wnt3a-transfected HEK293 [2]: 5.2 nM

More lines, now with the values ahead:

- Kd [1]: 0.388 nM
B1: PD32 (anti-ALCAM guide antibody, format not stated) (antibody, V domains shown)
VH: QVQLQESGGGLVQPGGSLRLSCAASGFTFSSYALSWVRQAPGKGLEWVSAISGSGGSTYYAGSVKGRFTISRDNSKNTLYLQMNSLRAEDTAVYYCAKGLIASHWGQGTLVTVSS
VL: SELTQDPAVSVALGQTVRITCQGDSLRSYYASWYQQKPGQAPVLVIYGKNNRPSGIPDRFSGSSSGNTASLTITGAQAEDEADYYCNSRDSSGIHLVFGGGTKLTVL
notes: Called 'guide antibody' and 'corresponding mAbs'; also called GPD32

- EC50 (so in the source), STF reporter, Wnt3a, HEK293 [2]: 3.02 nM
- IC50, STF reporter, Wnt3a-transfected HEK293 [2]: ~3 nM and 3.43 nM
- Kd [3]: ~1.4 nM
B3: E34N19 scFv-Fc (Fc fusion)
scFv: QVNLRESGGGLVQPGGSLRLSCAASGFTFSSYAMSWVRQAPGKGLEWVSAISGSGGSTYYADSVKGRFTISRDNSKNTLYLQMNSLRAEDTAVYYCAKVRGHGGNSGWVDYWGQGTLVTVSSGGGGSGGGGSGGGGSQSVLTQDPAVSVALGQTVKITCQGDSLRTYYTSWYQQRPGQAPILVLYANTHRPSSIPDRFSGSSSGTTASLTITGAQAEDEADYYCNSRDSSGNYLFGGGTKLTVL
notes: scFv gene cloned into unmodified pFUSE-hIgG1-Fc2; In some assays biotin-labelled as the detection reagent; also called monospecific E34N19; anti-effector mAb E34N19; not shown: human IgG1 Fc of vector pFUSE-hIgG1-Fc2 (InvivoGen)

- binding result [4]: binds
- binding result [5]: binds
B4: RYR (anti-EphA2 guide antibody, format not stated) (antibody, V domains shown)
VH: QVQLQESGGGLVQPGGSLRLSCAASGFTFSSYSMNWVRQAPGKGLEWVSYISSSSSTIYYADSVKGRFTISRDNAKNSLYLQMNSLRAEDTAVYYCARYRLPDFWSGYPNYGMDVWGQGTTVTVSS
VL: QSVLTQPPSVSGAPGQRVTISCTGSSSNIGAGYDVHWYQQLPGTAPKLLIYGNSNRPSGVPDRFSGSKSGTSASLAITGLQAEDEADYYCQSYDSSLSGHVVFGGGTKLTVL
notes: also called HCA-F1

- IC50, STF reporter, Wnt3a-transfected HEK293 [6]: 0.0446 nM
B6: E34N19/H3 bsIgG (bispecific antibody, part only; not given: constant regions and CL-scFv linker, not shown: another chain or arm of the molecule; a dimerising Fc or GST; small tags and cut ends)
VH: B7 VH
VL: B7 VL
scFv: QVQLVESGGGLVQPGGSLRLSCAASGFTFSSYAMSWVRQAPGKGLEWVSAISGSGGSTYYADSVKGRFTISRDNSKDTLYLQMNSLRAEDTAVYYCASRSLLDYWGQGTLVTVSSGGGGSGGGGSGGGGSNFMLTQNPAVSVALGQTVRITCQGDSLRSYYASWYQQKPGQAPLLVIYGKNNRPSGIPDRFSGSSSGNTASLTITGAQAEDEADYYCNSRDSSGNPVFGGGTKVTVL
